# Article PMC2570342 (Cell, 2008)
# B1: Coronin 1B (recombinant) (natural protein)
# chain: MSFRKVVRQSKFRHVFGQPVKNDQCYEDIRVSRVTWDSTFCAVNPKFLAVIVEASGGGAFLVLPLSKTGRIDKAYPTVCGHTGPVLDIDWCPHNDEVIASGSEDCTVMVWQIPENGLTSPLTEPVVVLEGHTKRVGIIAWHPTARNVLLSAGCDNVVLIWNVGTAEELYRLDSLHPDLIYNVSWNHNGSLFCSACKDKSVRIIDPRRGTLVAEREKAHEGARPMRAIFLADGKVFTTGFSRMSERQLALWDPENLEEPMALQELDSSNGALLPFYDPDTSVVYVCGKGDSSIRYFEITEEPPYIHFLNTFTSKEPQRGMGSMPKRGLEVSKCEIARFYKLHERKCEPIVMTVPRKSDLFQDDLYPDTAGPEAALEAEEWVSGRDADPILISLREAYVPSKQRDLKISRRNVLSDSRPAMAPGSSHLGAPASTTTAADATPSGSLARAGEAGKLEEVMQELRALRALVKEQGDRICRLEEQLGRMENGDA
# Molecular target: actin filaments (F-actin) (UniProt P68135 1-377)
# Experiment: co-sedimentation
binder,measurement,value
B1,IC50,74 nM
